Results on 8 molecules are retold here after publication PMC9207808 (ACS Chemical Biology, 2022).

“And” between values parts separate entries of the source, which are not always exact repeats. Identical values can stand only once. Like-named read-outs stand apart in the source and are kept apart here. Residues, ends and D or L forms follow the SMILES beside them. No end group written: not given here.

Assay [1] has as its system DocSTm. Kind of assay: Differential scanning fluorimetry (thermal stabilisation of Doc). It is filed as binding, S. Typhimurium. An outline of the steps: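 Thermal shift of 5 μM Doc in 20 mM K2HPO4, 50 mM (NH4)2SO4, pH 8.0 with 3× SYPRO Orange, heated from 25 to 95 °C in a qPCR instrument, in triplicate. Melting temperatures from Boltzmann sigmoid fits of the transition region.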
(Differential scanning fluorimetry follows unfolding on heating by fluorescence.)

The subject of assay [2] is DocSTm. Kind of assay: Surface plasmon resonance binding to immobilised Doc. Set-up: species or system S. Typhimurium. An outline of the steps:
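Doc captured on an NTA chip at 22 °C in 10 mM HEPES, 500 mM NaCl, 50 μM EDTA, 0.005% TWEEN 20, pH 8.0. Analytes injected as 80 s pulses at 30 μL/min in multicycle or single-cycle kinetics.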
(In general: In SPR one partner is held on a chip, and binding of the other changes the refractive index at the surface.)

Assay [3] has as its system DocSTm. The experiment in a line: Dot blot phosphorylation assay (EF-Tu phosphorylation by Doc). The settings on record: α-pThr, DocSTm 1 μM, EF-TuSTm 3 μM, ATP 1 mM, inhibitor 10 μM to 5 nM (3-fold dilutions), 16 h at RT. It is filed as biochemical, S. Typhimurium. Put shortly:
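Doc-mediated phosphorylation of EF-Tu was run for 16 h at RT, then the samples were spotted on nitrocellulose. Phospho-EF-Tu was detected with a rabbit monoclonal anti-phosphothreonine antibody and an HRP anti-rabbit secondary, read by chemiluminescence.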

The test system of assay [4] is S. Typhimurium (14028) Δphd-doc::Km strains coexpressing DocSTm. The experiment in a line: Growth rescue experiment in S. Typhimurium. It is filed as cell-based. To be noted: coexpression of DocSTm (pBAD33, arabinose) and Phd construct (pCA24N, basal expression); OD600 over time, M9 minimal medium; average of three independent experiments. An outline of the steps:
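Overnight cultures of S. Typhimurium 14028 Δphd-doc::Km strains coexpressing DocSTm, or with empty pBAD33, were diluted to OD600 ~0.006 in M9 with 0.5% or 1% arabinose, 0.4% glycerol and 0.4% casamino acids. Growth was followed by OD600 over time.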

Assay [5] deals with Doc toxin of Salmonella enterica serovar Typhimurium (DocSTm) (Salmonella enterica serovar Typhimurium). The experiment in a line: SPR; DocSTm immobilised on a Series S NTA chip (150 nM, 200-400 RU); analytes in single-cycle kinetics, typically six concentrations, kinetic 1:1 fit; 22 °C; 10 mM HEPES, 500 mM NaCl, 50 μM EDTA, 0.005% TWEEN 20, pH 8.0.
The target of assay [6] is Doc1-122–His6 (DocSTm toxin) (Salmonella typhimurium). Kind of assay: SPR; Biacore S200; Doc-His6 captured on a Series S NTA chip (200-400 RU); peptide as analyte, single-cycle kinetics, six concentrations (3-fold dilutions), 30 uL/min; 22 C; 10 mM HEPES, 500 mM NaCl, 50 uM EDTA, 0.005% TWEEN 20, pH 8.0; kinetic 1:1 fit.
For assay [7] the target is unchanged. The description is as above. This is another data set of the same source.

The term Kd denotes the equilibrium constant for the complex coming apart. As to `CC[C@H](C)[C@H](NC(=O)[C@H](C)NC(=O)[C@H](C)NC(=O)[C@H](Cc1ccccc1)NC(=O)[C@H](CCC(=O)O)NC(=O)[C@H](CC(=O)O)NC(=O)[C@H](CC(=O)O)NC(=O)[C@H](CCSC)NC(=O)[C@H](Cc1c[nH]c2ccccc12)NC(C)=O)C(=O)N[C@@H](CCSC)C(=O)N[C@@H](C)C(=O)N[C@H](C(=O)N[C@@H](Cc1c[nH]cn1)C(=O)NCC(=O)N[C@@H](CC(N)=O)C(=O)N[C@@H](CCC(=O)O)C(=O)N[C@@H](CC(C)C)C(=O)N[C@@H](CCCNC(=N)N)C(=O)N[C@@H](CCC(=O)O)C(=O)N[C@@H](C)C(=O)N[C@@H](C)C(=O)N[C@@H](CC(=O)O)C(=O)N[C@@H](CCCCN)C(=O)O)C(C)C` [peptide 17] (Ac-WMDDEFAAIMAVHGNELREAADK-OH; C-terminus assumed), the “melting temperature shift ΔTm” value in assay [1] (DSF, DocSTm 5 μM, analyte 50 μM, Tm with analyte minus Tm of free DocSTm (42.9 ± 0.9 °C), SYPRO Orange, 20 mM K2HPO4, 50 mM (NH4)2SO4, pH 8.0, triplicate) turned out to be 15.2 ± 1.0 °C. For the same molecule, in assay [1] (DocSTm 5 µM + 50 µM binder, average of 3 replicates), the “Average Tm” value is 58.0 ± 0.4 °C. Further, the Tm is 58.5 °C in assay [1] (DocSTm 5 µM + 50 µM binder, replicate 1); 57.9 °C in assay [1] (DocSTm 5 µM + 50 µM binder, replicate 2); 57.8 °C in assay [1] (DocSTm 5 µM + 50 µM binder, replicate 3). The “affinity to DocSTm greater than that of peptides 7, 10 and 14” value in assay [2] (SPR Kd ratio) is “at least 12 fold”. Moreover, in assay [2] (SPR Kd relative to wild-type peptide 1), the “fold decrease in affinity (given as decrease/loss in Kd) compared with peptide 1” value was 8- to 30 fold. For the same molecule, the Kd in assay [2] (SPR kinetic fit, replicate 1) was 2.1 nM; in assay [2] (SPR kinetic fit, replicate 2), 1.98 nM; in assay [2] (SPR kinetic fit, replicate 3), 1.02 nM; in assay [2] (SPR, kinetic fit, KD calculated from mean koff and kon, SD propagated, 22 °C, pH 8.0) it was 1.55 ± 0.58 nM. Also, the “koff × 10^-6” value in assay [2] (SPR, 1:1 kinetic fit, 22 °C, pH 8.0, mean ± SD of at least 3 replicates) is given as 5967 ± 404 ×10^-6 s-1. Also, in assay [2] (SPR, 1:1 kinetic fit, single-cycle kinetics (multicycle for PhdSTm1-73), 22 °C, pH 8.0, mean ± SD of at least 3 replicates), the “kon × 10^6” value is reported as 3.837 ± 1.398 ×10^6 M-1 s-1. Further, the “Half-life of the complex” value in assay [2] (t1/2 = ln2 / koff) was 1.92 ± 0.12 min. For the same molecule, the “inhibition of EF-TuSTm phosphorylation by DocSTm (in words)” value in assay [3] is “among the poorest inhibitors of EF-TuSTm phosphorylation”. Moreover, in assay [4], the “rescue of Salmonella growth from DocSTm-induced growth inhibition (in words)” value is reported as “not able to counteract DocSTm-induced growth inhibition of Salmonella”.

In assay [5], Ac-WMADEFAAIMAVHGNELRELADK [peptide 3 (Phd 52-73 D53A)] displayed a dissociation constant Kd of 0.013 nM, a fold improvement of koff against peptide 1 of 1.5 fold and a fold improvement of kon against peptide 1 of 4 fold.

As usually defined, the koff is the rate constant with which the complex falls apart. Low readings indicate a long-lived complex, high ones a short-lived complex. In general, kon refers to a measure of how fast the partners come together. As to Ac-EFAAIMAVHGNELRELADK-OH [peptide 21 (PhdSTm55-73)], in assay [6], the dissociation constant Kd turned out to be 0.396 nM, the koff worked out at 0.000496 s⁻¹ and the kon is 1.25e+06 M⁻¹ s⁻¹. Moreover, in assay [7], the Kd was 0.41 nM and 0.412 nM and 0.365 nM; the koff was 0.000551 s⁻¹ and 0.000501 s⁻¹ and 0.000436 s⁻¹; the kon was 1.3e+06 1/(M s) and 1.2e+06 1/(M s) (2×).

In assay [5], Ac-WMDDEAAAIMAVHGNELRELADK [peptide 6 (Phd 52-73 F56A)] showed an equilibrium dissociation constant (Kd) of 0.852 nM.

Ac-FAAIMAVHGNELREL-OH [peptide 23 (PhdSTm56-70)]: in assay [6], the koff stood at 0.00279 s⁻¹ and the association rate constant (kon) was found to be 1.41e+06 M⁻¹ s⁻¹. In addition, in assay [7], the Kd was 1.85 nM and 1.94 nM and 2.18 nM; the koff is 0.00284 s⁻¹ and 0.00279 s⁻¹ and 0.00276 s⁻¹; the kon was 1.53e+06 M⁻¹ s⁻¹ and 1.44e+06 M⁻¹ s⁻¹ and 1.26e+06 M⁻¹ s⁻¹.

In assay [5], Ac-WMDAEFAAIMAVHGNELRELADK [peptide 4 (Phd 52-73 D54A)] came in with a Kd of 0.013 nM, a fold improvement of koff against peptide 1 of 1.5 fold and a fold improvement of kon against peptide 1 of 4 fold.

The molecule Ac-WMDDEFAAIMAVHGNELREAADK [peptide 17 (Phd 52-73 L70A)] registered a Kd in assay [5] of 1.55 nM.

For the molecule Ac-EFAAIMAVHGNELRELA-OH [peptide 22 (PhdSTm55-71)], in assay [6], the dissociation rate constant (koff) stood at 0.000503 s⁻¹ and the on-rate (kon) was determined as 1.45e+06 M⁻¹ s⁻¹. In assay [7], the dissociation constant Kd was 0.342 nM and 0.336 nM and 0.365 nM; the koff is 0.000521 s⁻¹ and 0.000492 s⁻¹ and 0.000495 s⁻¹; the on-rate constant (kon) was 1.5e+06 1/(M s) (2×) and 1.4e+06 1/(M s).
